Source: patent US20240317873A1 (CITY OF HOPE, published 2024)
Where two headings read alike, the source gives them in different places.

Columns and labels:
[1] = target: T1, human HVEM on the surface of cells (MM.1S myeloma cells, patient myeloma cells, Jurkat cells overexpressing … (human, UniProt Q92956 39-283)); test: imaging mass cytometry, 166Er-conjugated antibody, mouse bone marrow engrafted with MM1.S cells
T1 construct: whole, on cells; also called CD270; TNFRSF14
T1 sequence (looked up): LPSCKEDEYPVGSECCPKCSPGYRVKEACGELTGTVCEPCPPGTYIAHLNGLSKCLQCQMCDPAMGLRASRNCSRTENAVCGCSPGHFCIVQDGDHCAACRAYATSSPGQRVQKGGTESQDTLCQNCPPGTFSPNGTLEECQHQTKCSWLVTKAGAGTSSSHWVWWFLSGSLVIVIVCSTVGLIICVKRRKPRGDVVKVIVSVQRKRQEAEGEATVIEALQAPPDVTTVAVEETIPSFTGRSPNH
Method: Mass cytometry was performed on mice bone marrow tissues engrafted with MM1.S cells. […] HVEM-4, 5, 13, 17, and 22 were used for staining and the nucleus was counterterstained with Ir-191.

[2] = target: T2, HVEM (SinoBio, monomeric) (human, UniProt Q92956 39-202); test: SPR; the chip of this figure is not described, the only SPR set-up of the filing is HVEM (SinoBio, monomeric) on CM5
T2 construct: Bought protein immobilised on a CM5 chip by EDC/NHS coupling; also called hHVEM; TNFRSF14
T2 sequence (looked up): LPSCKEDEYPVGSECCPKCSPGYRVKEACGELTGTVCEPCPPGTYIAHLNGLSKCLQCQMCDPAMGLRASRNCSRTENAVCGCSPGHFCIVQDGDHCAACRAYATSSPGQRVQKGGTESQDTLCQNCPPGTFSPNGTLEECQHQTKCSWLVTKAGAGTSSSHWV

[3] = target: T1, human HVEM on the surface of cells …; test: imaging mass cytometry, 166Er-conjugated antibody, bone marrow of a multiple myeloma patient
Method: Mass cytometery was performed on bone marrow from a patient with multiple myeloma. […] HVEM-4, 5, 13, 17, and 22 were used for staining and the nucleus was counterterstained with Ir-191.

[4] = target: T2, HVEM (SinoBio, monomeric); test: SPR; the chip of this figure is not described, the only SPR set-up of the filing is HVEM (SinoBio, monomeric) on CM5; remark: listed apart in the source
[5] = target: T3, HVEM recombinant protein (ELISA-based competition assay) (human, UniProt Q92956 39-202, limits assumed); test: ELISA-based competition assay with recombinant proteins: binding of biotin-labelled HVEM to recombinant LIGHT (the blocked ligand), antibody titrated
T3 construct: The internal control used a biotin-labeled human HVEM; also called recombinant protein of HVEM; biotin-labeled human HVEM
T3 sequence (looked up): T2 sequence (looked up)

[6] = target: T2, HVEM (SinoBio, monomeric); test: SPR; the chip of this figure is not described, the only SPR set-up of the filing is HVEM (SinoBio, monomeric) on CM5; remark: listed apart in the source
[7] = target: T2, HVEM (SinoBio, monomeric); test: SPR, HVEM immobilised on CM5 chip, Fab as analyte, 25 C

B1: anti-HVEM antibody clone 17 (antibody, human IgG1, kappa, V domains shown)
VH: QIQLVQSGPELKKPGEPVKISCRASGYTLTNFGMNWVKQAPGKGLKWMGWINTYTGEPTYADDFKGRFAFSLETSASTAYLQINNLKNEDTATYFCARSFYGNEHYWGQGTSVTVSS
VL: QIVLTQSPAIMSASPGEKVTLTCSASSSVSSSYLFWYQQKPGSSPKLWIYSTSNLASGVPARFSGHGSGTSYSLTISSMEAEDAASYFCHQWSSYPYTFGGGTKLEIKR
notes: also called HVEM17; HVEM-17
B1: binds [1]; binds [2].

B2: anti-HVEM antibody clone 22 (antibody, human IgG1, kappa, V domains shown)
VH: QVQLQQSGAELVRPGASVTLSCKTSGYTFIHYEIHWVKQSPVHGLEWIGAIDPETGGTADNQKFKDKVTLTADKSSNTAYMDLRSLTSEDSAVYYCTRGDWVFAYWGQGTLVTVSA
VL: DVVMTQTPLSLPVSLGDQASISCRSSQSPLHSNGNTYLDWYLQKPGQSPKLLIYKVSNRFSGVPDRFSGSGSGTDFTLKISRVEAEDLGIYFCSQTTHVPPTFGGGTKLEIKR
notes: also called HVEM22; HVEM-22
B2: binds [3]; binds [4].

B3: mcHVEM13 IgG (clone 13) (antibody, V domains shown)
VH: QIQLVQSGPELKKPGETVKISCKASGYILTNYGMNWVKQAPGKGLKWMGWINTYTGEPTYADAFKGRFAFSLETSASTAYLQINNLKNEDTATYFCARGYGNHWYFDYWGQGTSVTVSS
VL: QIVLTQSPAILSASPGEKVTMTCSASSSVSYMHWYQRKSGTSPKRWIYDTSKLASGVPARFSGSGSGTSYSLTISSMEAEDAATYYCQQWTSDPLTFGAGTKLELKR
notes: Murine chimeric IgG; The constant region of the tested IgG is not spelled out; Metal-conjugated in mass cytometry; also called anti-HVEM13; aHVEM13
In the case of B3, the “IC50 (read off the curve)” value [5] is reported as roughly 20 nM.

B4: HVEM 23Ab (antibody, human IgG1, kappa, V domains shown)
VH: QIQLVQSGPELKKPGETVKISCKASGYTFTNFGMNWVKQAPGKALKWVGWINTYTGEPTYADDFKGRFAFSLETSATTAYLQISNLKNEDTATYFCARSYYFVTSEDYWGQGTSVTVSS
VL: QIVLTQSPAIMSASPGERVTMTCTARSSVSSSYLHWYQQKPGSSPKLWIYSTSNLASGVPARFSGSGSGASYSLTNSSMEAEDAATYYCHQYHRSTWTFGGGTKLEIKR
notes: also called anti-HVEM antibody clone 23
B4: no binding (tested: 100 nM) [6].

B5: mcHVEM13 Fab (clone 13) (Fab, V domains shown)
VH: B3 VH
VL: B3 VL
notes: Murine chimeric Fab; also called new mcHVEM13 Fab; anti-hHVEM murine chimeric Fab clone 13
B5 showed a Kd [7] of 99.6 nM, a koff [7] of 0.138 s⁻¹ and a kon [7] of 1.38e+06 M⁻¹ s⁻¹.
